Assay results: the Immune Epitope Database (IEDB)

Key:
HLA-A*24:02 = assay: IEDB peptide-MHC binding, purified MHC/competitive/fluorescence; ≥ and ≤ were set here for values at or beyond the usual limits of such assays
HLA-B*35:01 = assay: IEDB peptide-MHC binding, purified MHC/competitive/radioactivity; filed as Kd, often an IC50 or EC50 that approximates it; ≥ and ≤ were set here for values at or beyond the usual limits of such assays
HLA-A*02:01 [1] = assay: IEDB peptide-MHC binding, purified MHC/competitive/fluorescence; ≥ and ≤ were set here for values at or beyond the usual limits of such assays
HLA-A*32:01 = assay: IEDB peptide-MHC binding, purified MHC/competitive/radioactivity; filed as Kd, often an IC50 or EC50 that approximates it; ≥ and ≤ were set here for values at or beyond the usual limits of such assays
HLA-A*03:01 [2] = assay: as above
HLA-A*11:01 [3] = assay: as above
HLA-A*30:01 = assay: as above
HLA-A*31:01 [4] = assay: as above
HLA-A*03:01 [5] = assay: IEDB peptide-MHC binding, purified MHC/direct/fluorescence; filed as Kd, often an IC50 or EC50 that approximates it; ≥ and ≤ were set here for values at or beyond the usual limits of such assays
HLA-A*11:01 [6] = assay: as above
HLA-B*15:01 = assay: as above
HLA-B*58:01 = assay: as above; details: source organism: Homo sapiens
HLA-A*26:01 = assay: IEDB peptide-MHC binding, purified MHC/competitive/radioactivity; filed as Kd, often an IC50 or EC50 that approximates it; ≥ and ≤ were set here for values at or beyond the usual limits of such assays
HLA-A*01:01 [7] = assay: as above
HLA-A*69:01 = assay: IEDB peptide-MHC binding, purified MHC/direct/fluorescence; filed as Kd, often an IC50 or EC50 that approximates it; ≥ and ≤ were set here for values at or beyond the usual limits of such assays
HLA-B*07:02 = assay: as above
HLA-A*31:01 [8] = assay: as above
HLA-A*02:01 [9] = assay: as above
HLA-A*68:01 = assay: IEDB peptide-MHC binding, purified MHC/competitive/radioactivity; filed as Kd, often an IC50 or EC50 that approximates it; ≥ and ≤ were set here for values at or beyond the usual limits of such assays
HLA-A*33:01 = assay: as above; details: source organism: Mammarenavirus machupoense
HLA-A*01:01 [10] = assay: IEDB peptide-MHC binding, purified MHC/direct/fluorescence; filed as Kd, often an IC50 or EC50 that approximates it; ≥ and ≤ were set here for values at or beyond the usual limits of such assays; details: source organism: Homo sapiens
[11] = source organism: Sudan ebolavirus
[12] = source organism: Dengue virus 3 Martinique/1243/1999
[13] = source organism: Vaccinia virus WR
[14] = source organism: Dengue virus 2 Jamaica/1409/1983
[15] = source organism: Dengue virus 3 Singapore/8120/1995
[16] = source organism: Dengue virus 1 Brazil/97-11/1997
[17] = source organism: Zaire ebolavirus
[18] = source organism: Vaccinia virus
[19] = source organism: Human herpesvirus 4 strain B95-8
[20] = source organism: Vibrio vulnificus
[21] = source organism: Dengue virus 4 Philippines/H241/1956
[22] = source organism: Mammarenavirus machupoense
[23] = source organism: Burkholderia mallei
[24] = source organism: Francisella tularensis subsp. tularensis FSC198

Sequence LNDTIHLHQ has an IC50 (HLA-A*24:02; [11]) of 34000 nM.

LPEYGTLGLE gave a Kd (HLA-B*35:01; [12]) of 4.48 µM.

GLVSKFMSN was tested, and the IC50 (HLA-A*02:01 [1]; [13]) was 13.8 µM.

For GTNGISNGI, the Kd (HLA-A*32:01; [13]) was 20.1 nM.

GQLKLNWFKK showed a Kd (HLA-A*32:01; [14]) of 2070 nM.

Work on KALKINWYK yielded a Kd (HLA-A*03:01 [2]; [15]) of 84.1 nM, a Kd (HLA-A*11:01 [3]; [15]) of 81.7 nM and a Kd (HLA-A*30:01; [15]) of 360 nM. It also gave a Kd (HLA-A*31:01 [4]; [15]) of 0.11 nM.

HAHWTEAKM was tested, and the Kd (HLA-B*35:01; [16]) was 0.285 µM.

STFIMLEGE showed an IC50 (HLA-A*02:01 [1]; source organism: Vaccinia virus Copenhagen) of at least 434 µM.

With IHHASAPLT the IC50 (HLA-A*02:01 [1]; [17]) was at least 378 µM.

LVKLHSGKDV showed a Kd (HLA-A*30:01; [16]) of 5940 nM.

Work on YRFLVINRL yielded an IC50 (HLA-A*24:02; [13]) of 900 nM.

Sequence DGIRGFPRC has an IC50 (HLA-A*02:01 [1]; [17]) of at least 126 µM.

IDSMFLMTA showed an IC50 (HLA-A*02:01 [1]; source organism: Variola virus) of 28.7 µM.

Sequence FNYLFGGFS has an IC50 (HLA-A*02:01 [1]; source organism: Variola virus) of 51.6 µM.

HHRRTDNDS showed an IC50 (HLA-A*02:01 [1]; [17]) of at least 72.1 µM.

With KVVRVQRPTP the Kd (HLA-A*30:01; [14]) was 122 nM.

In the case of IADMGHLKY, the Kd (HLA-A*03:01 [5]; source organism: Homo sapiens) is reported as 3030 nM, the Kd (HLA-A*11:01 [6]; source organism: Homo sapiens) is reported as 2800 nM and the Kd (HLA-B*15:01; source organism: Homo sapiens) is reported as 4090 nM. It also gave a Kd (HLA-B*58:01) of 2000 nM.

Sequence ETTKRDLGM has a Kd (HLA-A*26:01; [12]) of 1.45 µM.

For GMHHLYREY, the Kd (HLA-B*15:01; source organism: Mammarenavirus juninense) was 135 nM.

Work on LTAGLSVQQ yielded an IC50 (HLA-A*02:01 [1]; [17]) of at least 298 µM.

In the case of FRKSSFFVW, the IC50 (HLA-A*24:02; [11]) is reported as 2420 nM.

With VTTWEDVPYL the Kd (HLA-A*01:01 [7]; [15]) was 10.2 µM.

In the case of KTKIDIIFA, the Kd (HLA-A*30:01; [18]) is reported as 10 nM.

ISGQSPART was tested, and the IC50 (HLA-A*02:01 [1]; [17]) was at least 137 µM.

For QPRAPIRPI, the Kd (HLA-A*69:01; [19]) was 2540 nM and the Kd (HLA-B*07:02; [19]) was 161 nM.

In the case of INQIIHDFI, the IC50 (HLA-A*24:02; [11]) is reported as 2770 nM.

In the case of RTSFAFQAI, the Kd (HLA-A*32:01; [13]) is reported as 3.78 nM.

TQMGGWFQK was tested, and the Kd (HLA-A*03:01 [5]; [20]) was 848 nM and the Kd (HLA-A*11:01 [6]; [20]) was 43.9 nM.

In the case of MPPLRFLGED, the Kd (HLA-B*35:01; [21]) is reported as 15.2 µM.

Sequence RVTDMAPFK has a Kd (HLA-A*03:01 [5]; source organism: Listeria monocytogenes) of 404 nM.

Sequence SWLITSGFR has a Kd (HLA-A*03:01 [5]; source organism: Cowpox virus) of at least 20000 nM and a Kd (HLA-A*31:01 [8]; source organism: Cowpox virus) of 1100 nM.

Work on ITVIDLEPIS yielded a Kd (HLA-A*30:01; [21]) of 105 nM.

For LTKRFSLGM, the Kd (HLA-A*26:01; [14]) was at least 31.8 µM.

Sequence VLEENMDVEI has a Kd (HLA-A*01:01 [7]; [16]) of at least 46.5 µM.

Sequence AMLAGTAVV has a Kd (HLA-A*02:01 [9]; source organism: Mycobacterium tuberculosis) of 5.9 nM.

With KQWFLDLPLP the Kd (HLA-A*30:01; [16]) was 9590 nM.

Sequence KWKRQLNSL has a Kd (HLA-A*30:01; [21]) of 290 nM.

CLRCSKLNL was tested, and the Kd (HLA-A*30:01; [13]) was 482 nM.

With KTMTTVYIL the Kd (HLA-A*32:01; [13]) was 13.9 nM.

With IGVLLTWIGL the Kd (HLA-A*32:01; [12]) was at least 33000 nM.

With EPIVGAETF the Kd (HLA-B*07:02; source organism: Human immunodeficiency virus 1) was 5640 nM.

In the case of RTENFVLSI, the Kd (HLA-A*32:01; [13]) is reported as 1.62 nM.

Work on DVFFTPPEK yielded a Kd (HLA-A*30:01; [14]) of 1300 nM and a Kd (HLA-A*68:01; [14]) of 3.59 nM.

Sequence RTAPPSLYGR has a Kd (HLA-A*03:01 [2]; [22]) of 16.2 nM, a Kd (HLA-A*11:01 [3]; [22]) of 8.92 nM and a Kd (HLA-A*30:01; [22]) of 759 nM. The Kd (HLA-A*31:01 [4]; [22]) was 1.59 nM, the Kd (HLA-A*33:01) was 2390 nM and the Kd (HLA-A*68:01; [22]) was 10.2 nM.

Work on WTTLLSLTF yielded a Kd (HLA-A*01:01 [7]; [16]) of 11.2 µM.

Sequence LIGKEEYVDY has a Kd (HLA-A*01:01 [7]; [21]) of 7.91 µM.

In the case of ATVTGGIFLF, the Kd (HLA-A*01:01 [7]; [14]) is reported as 2.03 µM and the Kd (HLA-A*26:01; [14]) is reported as 2.51 µM.

RTWFHGSLY gave a Kd (HLA-A*03:01 [5]; source organism: Cryptosporidium parvum) of 13.1 nM.

With AVPVHWVPTS the Kd (HLA-A*30:01; [12]) was 10500 nM.

Sequence GNPGRFWNTT has a Kd (HLA-A*32:01; [14]) of 9900 nM.

MALIVSIFK showed a Kd (HLA-A*30:01; [18]) of 896 nM.

For LTSRETALM, the Kd (HLA-A*01:01 [7]; [21]) was 1.8 µM.

Sequence LTILIRTGLL has a Kd (HLA-A*26:01; [14]) of 8.47 µM.

With DAAAPLPPV the Kd (HLA-A*02:01 [9]; [23]) was at least 20000 nM and the Kd (HLA-A*69:01; [23]) was 0.8 nM.

With SSECQGEML the Kd (HLA-A*01:01 [10]) was 4.76 µM.

RDKFRKSSF was tested, and the IC50 (HLA-A*24:02; [11]) was 35700 nM.

With SFSSGWSPR the Kd (HLA-A*03:01 [5]; [24]) was at least 20000 nM and the Kd (HLA-A*31:01 [8]; [24]) was 3.4 nM.

Sequence ATARSSPEK has a Kd (HLA-A*30:01; [13]) of 0.584 nM.

EIQLTDYGAL was tested, and the Kd (HLA-A*26:01; [16]) was 5.58 µM.

With LFDLDEDDE the IC50 (HLA-A*02:01 [1]; [17]) was at least 212 µM.
